Positions count from the first letter of the chain named.
B1: Thioredoxin h2 (Trx-h2), purified recombinant protein (protein)
chain: MGGALSTVFGSGEDATAAGTESEPSRVLKFSSSARWQLHFNEIKESNKLLVVDFSASWCGPCRMIEPAIHAMADKFNDVDFVKLDVDELPDVAKEFNVTAMPTFVLVKRGKEIERIIGAKKDELEKKVSKLRA
B2: Trx-h2(C/S), redox-insensitive point mutant of Trx-h2, recombinant (protein)
chain: B1 chain with C59S, C62S
B3: Trx-h2, endogenous protein in Arabidopsis plants (protein)
chain: GGALSTVFGSGEDATAAGTESEPSRVLKFSSSARWQLHFNEIKESNKLLVVDFSASWCGPCRMIEPAIHAMADKFNDVDFVKLDVDELPDVAKEFNVTAMPTFVLVKRGKEIERIIGAKKDELEKKVSKLRA

Columns and labels:
[1] = target: His-CBF1 (histidine-tagged C-repeat-binding transcription factor 1), recombinant
[2] = target: CBF1-Myc (from CBF1-Myc^OE Arabidopsis plants)
CBF1-Myc (from CBF1-Myc^OE Arabidopsis plants), sequence (chain, as listed by the source): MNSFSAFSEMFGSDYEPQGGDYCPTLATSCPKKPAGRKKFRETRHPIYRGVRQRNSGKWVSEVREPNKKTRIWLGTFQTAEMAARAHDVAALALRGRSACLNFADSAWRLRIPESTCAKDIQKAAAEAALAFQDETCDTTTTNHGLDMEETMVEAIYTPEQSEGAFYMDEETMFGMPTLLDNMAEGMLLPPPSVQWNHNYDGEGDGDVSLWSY

His-CBF1 (histidine-tagged C-repeat-binding transcription factor 1), recombinant, sequence (chain, as listed by the source): as above

| Protein | EMSA: mobility shift of the biotin-labeled COR15a promoter probe with His-CBF1 [1] | dissociation of CBF1 oligomers into monomers (Trx system with NADPH, Trx reductase and 5 µM Trx-h2; non-reducing SDS-PAGE, western blot) [1] | cold-induced structural switching of CBF1-Myc oligomers in planta (non-reducing gel, CBF1-Myc^OE/Col-0 against CBF1-Myc^OE/trx-h2) [2] |
| --- | --- | --- | --- |
| B1 | Treatment with DTT or Trx-h2 ... induced a distinct mobility shift in the probe interacting with His-CBF1 | reduced and dissociated CBF1 oligomers into monomers |  |
| B2 | but not H2O2 or Trx-h2(C/S), induced a distinct mobility shift |  |  |
| B3 |  |  | gradually dissociated into small oligomers and monomers by cold (lanes 2-4). By contrast, no structural change was detected in CBF1 extracted from CBF1-Myc^OE/trx-h2 plants |
